The supplement of paper PMC9170038

system: K4 kissing-loop RNA reporter; test: apparent KD of K4 kissing-loop reporter; higher = weaker reporter binding; conditions: Eterna round: R107; input ligand: theophylline 20 uM
Experimental: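 RNA-MaP round R107: designed RNA switches with theophylline, tryptophan, arginine or FMN aptamers are transcribed on-chip within common flanks. They are titrated with a labelled K4 kissing-loop RNA reporter in RNA-MaP buffer (100 mM Tris pH 7.5, 80 mM KCl, 4 mM MgCl2), without ligand or with the indicated ligand. Median apparent KD per design.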
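Note: bound reporter read as fluorescence of individual clusters on recovered sequencing chips by microscopy, with normalized cluster intensities fitted with a binding model.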

| Sequence | apparent KD of K4 kissing-loop reporter [nM] |
| --- | --- |
| AAUUUACAAUAAUCAUUUAAAGGAUCAGAAGGAGCGUGUUAUAACACAGGUAGGUCGCUGAGCGAGUGAUGUUCGCUAUAUACAA [JR_ExcArginiA_Sub002] | 99.8 |
| UAACUGCAGUGAUGUUGCAGAUGUCCUGACUAGGAUAUCAGGAAACUGAGAAGGAGUCCCUUCUACUGCAACAAGAAGGAGGACA [[K1]-[K2]-[F1]'-[F1]-[F2]-[F2]'-[K]'-[F]''_Design2] | 391 |
| GUGCAGUGAUGUUGCACGAGGAAAGACGAUACCAGCCGUAAAUAAGGCCCUUGGCAGCGUAAGCUAGCAUAAAGUAUGCUAGUCC [Onarve] | 77.1 |
| GGAUCCACCAGUGAUGUUGGAGAAAACUUCAAGGAUAUGACGAAAGUCAGAAGGUGAUAGACUGGACAAAGUCCGGUCGGAUCCA [FmnA 19 U29+A57] | 527 |
| GCCGUAGAUUGAAGGAGCGCUAGUCUACGAUGACACACAGUGAUGUUGUGCGUGAUUUCAUAGCAGGUAGGUCGCAAUCUACGGC | 186 |
| AGACUACCACACUGUCAAUAGACAGUGAGCUAGGAUAUGCUGAUAAGCAGAAGGAGUGAUGUUCCUAGGUAGUCAAUAAAAUAAU [FmnAX 13 G29] | 645 |
| GCCGCAAGGAUAGCAGCAAUAGGCGCUCGCUAGGAUAUCUGGAAACAGAGAAGGAGCUGGAGUGAUGUUUUACCUCCUAAAAUUA | 210 |
| CGAGUGAUGUUCGUUUUUUACUUUUUUUGACAGGAUAUGCGGAAACGCAGAAGGGUCACCUUUGAGUUAAAAGAAGUUAUUUUUU [Ex FMN A 18] | 271 |
| GCGUCUGUCGGAAGGAGCGCACUAUGGAGUGAUGUUCCAUGACCGCACAGCUUGCGGUCAGUGCAGGUAGGUCGCCGAUAGCGUU [Diestera] | 190 |
| AAACUACGUGACGAUACCAGCUUACUCGGCAAGCCAGUGAUGUUGGUGAAAAGGAGUCAAAGCCCUUGGCAGCGUCGAAGGUUUG [Usandiat] | 129 |
| AGUGAGUGAUGUUCACUGUACGUGUCUGAAGGAGCGACAUCGAUGUCAGGUAGGUCGCAGACAUGUCAUCUAUGGUGCGUGACCA [Arg A SS t10] | 163 |

same assay, conditions: Eterna round: R107; input ligand: tryptophan 2.4 mM

| Sequence | apparent KD of K4 kissing-loop reporter [nM] |
| --- | --- |
| GGAGAGGUCUUGUUUGGAUGUGAUUAAUGGCGAGGACCGGUACGGCCGCCACUCGGGUGAUGUUAGUGAUGUUGAUGUAGUGAUG [uyumullin] | 109 |
| GCGCAUGUUAAAGGAUAUAGCAGGUGAUACAAGAAAGUGAGUGAUGUUUAUGUAGAUGAUGAUAUGUUAGAAGGUUAACAAACGC [abcdefghijklmno] | 564 |
| AAGCAGUCACUCGCAGCCAUCGAAGAUGGGCGAGGACCGGUACGGCCGCCACUCGGAGUGAUGUUCCGCAGACUGCAAAAUAAAA | 428 |
| AAUAUCUAGUAUAUAUUUAAUAAAACAGAUACCAGUGAUAAUAGACACCCUUGGCAGCUGGACGAGUGAUGUUCGUAUAUAUUAA [JR_SSTheophyA_Sub007] | 66.8 |
| AGAACUGUCUUGGAUACCAGUGAUGUUGGUAUCGAUGUGUGAGUGCAAAGCGUCCCAGAGUGCCCUUGGCAGCUAAGACUGUUCA [#16 K4 Theophylline B Exclusion] | 259 |
| UUUGGAGAGGGAAGGAGCGUGAAAGAGAAAGAAUAUAGUGAUGUUAUAUAGAAGAAAGAAUCACAGGUAGGUCGCCCGGAGGAGG [SSArgB.D] | 575 |
| AGCCGAAAGGCGAGUGCUGUCACUCCGGAAGGAGCGCAGGAAACUGCAGGUAGGUCGCCGGAGUGAUGUUCCGGUGCAGCACUCA [Omei KL Arginine A Exc B v6] | 800 |
| GGAUGGUAGGCGGCCGCCACUAAAUGUGAACACAUACAAGCCAGUGAUGUUGGUAUGAUGGACAAUAGGACCGGGCCUAGAUAGA [Exclusion - Tryptophan B (Freestyle 7)] | 542 |
| AGGCACGAGCAAGGAUAUCGAGUGGAGUGAUGUUCUGCCGACCCAGGACCGCAAGGUCCUGGGUCGCGAGAAGGUGCUCGUGCCU [#2 Same State - FMN A Attempt #5 (HarryS)] | 685 |
| AGGAUCCGUCGACAAAAGUCGACAUAAUCCAAGGAUAUGACGAAAGUCAGAAGGUGGACAUAAGUCCAGUGAUGUUGGAGGAUCC [FmnA 16 #SwitchBubble #K4Late] | 351 |
| UAGUCAUACAGAGGAUAUCGUAUGAGUGAUGUUCAUACGAUAUAAUCUAAUUGUAUAGAUGUUCGACGAGAAGGCUGUAUGACUA [FMN B Ex t1a] | 92.6 |
| UGUCAUGGAAACAUGAACGUUGAAAUAAAUCGAGGACCGGUACGGCCGCCACUCGUAUAGCGGUCAGUGAUGUUGACUGUAAUAA [KL-SSTryp-A form2 sub9] | 98.7 |
| GUAUACAUAGAUCACCUUGUAGUGAUGUUGCGAGGACCGGUACGGCCGCCACUCGAAGUACGAAAGUACAAAGAUCUAUGUAUAC [Exclusion Trypto A - 1] | 45.9 |
| CAUACGCAUGGAGGAUAUGAGAUUACUCGUAUCAUUUAAUAUUCUCAGUGAUGUUGAGAUUUGGGCUCAGAAGGCCAUGUGUAUG [Ex FMN B 16] | 288 |
| CCAGAAUGAUGAAGAUGAUAAAUUACUGAAGGAGCGCAUAUAGUUGCAGGUAGGUCGCGGUGAAUAAGUAUAGUGAUGUUAUACC [SSArgA.Ac] | 204 |
| UUUGUAUAGGGAAGGAGCGUGAAUGAUAAUGAAUAUAGUGAUGUUAUAUAUAAGAAAGAAUCACAGGUAGGUCGCCCGGAUGAGU [SSArgB.L] | 356 |
| CGCGCGCGUUUGAGAGGGUGCGCGCGAAGUGAGGAUAUUUAGGGAGAAAGAAGGCACUAUAAAAUAUAGUGAUGUUAUAUAAGGG [SSFMNA.G] | 344 |
| AGAUUCGACACGGCCGCCACUUCCAGUGGUCGGUGUCAUGGUGCACAUGAGUGAUGUUCAUGUGGAAGGACCGGGUGUUGAGUCU [KL-XTryp-B3 #analogue] | 165 |
| CGCGCGGGUUGAGAGGUUCGCGCGAAUGAUACCAGUAUAUAAGAAUACCCUUGGCAGCAUAAGAAAGAUAUAGUGAUGUUGUAUA [SSTheophA.G] | 262 |
| GUAUUUCCCUCGGAUACCAGUCAUCAUGAGUAUAGUGAUGUUGUACGUCCGGAUGAUUUUGACCCUUGGCAGCCGUCUCCUUGAA [theeternabot_sameState_KL_Theo_B_49] | 540 |
| UGGAGUUGACGAAAAGUCAACUCCUGAGAUACCAGUGACGAAAGUCACCCUUGGCAGCUCACUGCCAGUGAUGUUGGAAAAUAAA [#OpenEnded 1] | 387 |
| UGUAUGUGAUUUGAUACCAGACCAGCUGGUGGAUCACGAGUGAUGUUCGUGUUGGUUUGGGUCCCUUGGCAGCAAAUCGCAUACU [KL-SSTheoB13] | 166 |

| Sequence | apparent KD of K4 kissing-loop reporter [nM] |
| --- | --- |
| CGCAGUGAUGUUGCGAGUAGCUACAGGGAAGGAGCGUGCUAGAGCACAGGUAGGUCGCCCACUGGGUCAGUGAUGUUGGUCGGGU [Same State Arginine A GF 29] | 171 |
| GUGCGGCUAGUGAUGUUGGUUGCGUGGGAAGGAGCGCAGAAACAUGCAGGUAGGUCGCCCACAUCUCUGAUAAAAGAUUAAUUCA [Riares] | 239 |
| UGAUAGGACAGAAGGAGCGGAGCUGGUCAAAGACCAGCAAUAACGUUGAAAGGAGUGAUGUUCCAGGUAGGUCGCUGUCCUAUCU [ArgBX 26 #SwitchBubble #StaticStem] | 93.7 |
| AGAGUACGAAAGUACUCCUCUACACACUGCCGAGGACCGGUACGGCCGCCACUCGAGUUGAGUGAUGUUCGACAGUGUGUAGAGA [Omei KL Tryp A SS C v2] | 128 |
| CCGAAGAACCAGUGAUGUUGGUUGACUAGACAGGAUAUGAGCAACAUCAGAAGGGUCUGGCUUCGGGAGUGAGUCGCGCUGACUU [Reverigeed] | 314 |
| GUAUCGCUAGGAGGAUAUGUCGUUUUUCAUAGCAAUGGCUGUGCGGAGUGAUGUUCCGAUUUACCGGCAGAAGGCCUAGUGAUAC [FMN B 28] | 89.8 |
| AAGAGCUAGGCGGCCGCCACUAGAUGUGAACACAUACAAACCAGUGAUGUUGGUAUGAUGGACAGUAGGACCGGGCCUAGCUGAA [Exclusion - Tryptophan B (Freestyle 10)] | 995 |
| UGAUAGGACAGAAGGAGCGGAAGUGAUGUUUCCAAAUGGAAUAAGGUGUCAAAGACACCCUUCCAGGUAGGUCGCUGUCCUAUCU [ArgBX 15 #Palindromic #SwitchBubble #StaticStem] | 128 |
| AAAUAUUCGAGUGAUGUUCGAUAAAUUUCAGAGGAUAUGCUUAAAAGCAGAAGGCUGUAUUUCUAUUUGUUAUUAAAUUUUAUAA [JR_ExcFMNA_Sub002] | 76.9 |
| AAAUAAAUCACGGCCGCCACUGUAAGUUGAAGUGAUGUUUCAAGAUAUAGUAUGUUUUAUAAUAUCAGGACCGGGUGAUUUUUAA [JR_SSTryptoB_Sub021] | 119 |
| AAUUUACAAUAAUCAUUUAAAGGAUCAGAAGGAGCGUGUUAUAACACAGGUAGGUCGCUGAGCGAGUGAUGUUCGCUAUAUACAA [JR_ExcArginiA_Sub002] | 64.5 |
| UAACUGCAGUGAUGUUGCAGAUGUCCUGACUAGGAUAUCAGGAAACUGAGAAGGAGUCCCUUCUACUGCAACAAGAAGGAGGACA [[K1]-[K2]-[F1]'-[F1]-[F2]-[F2]'-[K]'-[F]''_Design2] | 408 |
| GUGCAGUGAUGUUGCACGAGGAAAGACGAUACCAGCCGUAAAUAAGGCCCUUGGCAGCGUAAGCUAGCAUAAAGUAUGCUAGUCC [Onarve] | 85.2 |
| GGAUCCACCAGUGAUGUUGGAGAAAACUUCAAGGAUAUGACGAAAGUCAGAAGGUGAUAGACUGGACAAAGUCCGGUCGGAUCCA [FmnA 19 U29+A57] | 462 |
| GCCGUAGAUUGAAGGAGCGCUAGUCUACGAUGACACACAGUGAUGUUGUGCGUGAUUUCAUAGCAGGUAGGUCGCAAUCUACGGC | 183 |
| AGACUACCACACUGUCAAUAGACAGUGAGCUAGGAUAUGCUGAUAAGCAGAAGGAGUGAUGUUCCUAGGUAGUCAAUAAAAUAAU [FmnAX 13 G29] | 493 |
| GCCGCAAGGAUAGCAGCAAUAGGCGCUCGCUAGGAUAUCUGGAAACAGAGAAGGAGCUGGAGUGAUGUUUUACCUCCUAAAAUUA | 1070 |
| CGAGUGAUGUUCGUUUUUUACUUUUUUUGACAGGAUAUGCGGAAACGCAGAAGGGUCACCUUUGAGUUAAAAGAAGUUAUUUUUU [Ex FMN A 18] | 249 |
| GCGUCUGUCGGAAGGAGCGCACUAUGGAGUGAUGUUCCAUGACCGCACAGCUUGCGGUCAGUGCAGGUAGGUCGCCGAUAGCGUU [Diestera] | 144 |
| AAACUACGUGACGAUACCAGCUUACUCGGCAAGCCAGUGAUGUUGGUGAAAAGGAGUCAAAGCCCUUGGCAGCGUCGAAGGUUUG [Usandiat] | 255 |
| AGUGAGUGAUGUUCACUGUACGUGUCUGAAGGAGCGACAUCGAUGUCAGGUAGGUCGCAGACAUGUCAUCUAUGGUGCGUGACCA [Arg A SS t10] | 118 |
